The target of data set [1] is T1, DNA polymerase mu (Polµ) (Homo sapiens, UniProt Q9NP87 1-494). Kind of data set: EMSA; EMSA: 50 mM Tris-HCl pH 7.5, 0.1 mg/ml BSA, 1 mM DTT, 4% glycerol, 5 nM DNA, 10 min at 30°C; footprinting: same buffer, 30 nM DNA, 37°C (2.5 mM MgCl2 and 100 µM dNTP where stated). The note with it: protein: recombinant, tags: pRSETA-hPolµ construct.
The target of data set [2] is T2, Polµ-ΔBRCT (Homo sapiens, UniProt Q9NP87 138-494). Nature of the data set: EMSA; 5'-P assignment inferred: binding undetectable without it; EMSA: 50 mM Tris-HCl pH 7.5, 0.1 mg/ml BSA, 1 mM DTT, 4% glycerol, 5 nM DNA, 10 min at 30°C; footprinting: same buffer, 30 nM DNA, 37°C (2.5 mM MgCl2 and 100 µM dNTP where stated). The note with it: protein: recombinant; tags: pRSETA construct; label: 32P; 3' overhang 2 nt (text says 3 nt), other end blunt.

The target in data set [3] is T2, Polµ-ΔBRCT. Kind of data set: EMSA; 300 and 600 nM protein; EMSA: 50 mM Tris-HCl pH 7.5, 0.1 mg/ml BSA, 1 mM DTT, 4% glycerol, 5 nM DNA, 10 min at 30°C; footprinting: same buffer, 30 nM DNA, 37°C (2.5 mM MgCl2 and 100 µM dNTP where stated). The note with it: protein: recombinant; tags: pRSETA construct; label: 32P; 3' overhang 2 nt (text says 3 nt), other end blunt.

Data set [4] concerns the target T3, DNA polymerase beta (Polβ) (Homo sapiens, UniProt P06746 1-335). Kind of data set: DNase I footprinting; 100 µM dTTP, 2.5 mM MgCl2; protects positions 36-45; EMSA: 50 mM Tris-HCl pH 7.5, 0.1 mg/ml BSA, 1 mM DTT, 4% glycerol, 5 nM DNA, 10 min at 30°C; footprinting: same buffer, 30 nM DNA, 37°C (2.5 mM MgCl2 and 100 µM).
Data set [5] addresses T2, Polµ-ΔBRCT. Kind of data set: DNase I footprinting; protects 10 nt, no downstream extension; EMSA: 50 mM Tris-HCl pH 7.5, 0.1 mg/ml BSA, 1 mM DTT, 4% glycerol, 5 nM DNA, 10 min at 30°C; footprinting: same buffer, 30 nM DNA, 37°C (2.5 mM MgCl2 and 100 µM dNTP where stated). The note with it: protein: recombinant; tags: pRSETA construct; label: 32P at 5' end of FP-T; 1-nt gap, three strands; template FP-T, primer FP-P, downstream FP-D; otherwise blunt.

The target in data set [6] is T1, DNA polymerase mu (Polµ). Kind of data set: DNase I footprinting; 100 µM dTTP, 2.5 mM MgCl2; protects positions 36-52; EMSA: 50 mM Tris-HCl pH 7.5, 0.1 mg/ml BSA, 1 mM DTT, 4% glycerol, 5 nM DNA, 10 min at 30°C; footprinting: same buffer, 30 nM DNA, 37°C (2.5 mM MgCl2 and 100 µM dNTP where stated). Conditions: protein: recombinant; tags: pRSETA-hPolµ construct; label: 32P at 5' end of FP-T; 1-nt gap, three strands; template FP-T, primer FP-P, downstream FP-D; otherwise blunt.

A further data set addresses Polµ H329G (Homo sapiens, UniProt Q9NP87 1-494, H329G). Nature of the data set: DNase I footprinting; with/without dATP or dTTP; no expansion with nucleotide, no downstream BRCT extension; EMSA: 50 mM Tris-HCl pH 7.5, 0.1 mg/ml BSA, 1 mM DTT, 4% glycerol, 5 nM DNA, 10 min at 30°C; footprinting: same buffer, 30 nM DNA, 37°C (2.5 mM MgCl2 and 100 µM dNTP where stated). The note with it: protein: recombinant; label: 32P at 5' end of FP-T; 1-nt gap, three strands; template FP-T, primer FP-P, downstream FP-D; otherwise blunt.

The target in the next data set is Polµ R387A (Homo sapiens, UniProt Q9NP87 1-494, R387A). Kind of data set: DNase I footprinting; footprint expands to primer side with dTTP; downstream extension only partly recovered with dTTP; EMSA: 50 mM Tris-HCl pH 7.5, 0.1 mg/ml BSA, 1 mM DTT, 4% glycerol, 5 nM DNA, 10 min at 30°C; footprinting: same buffer, 30 nM DNA, 37°C (2.5 mM MgCl2 and 100 µM dNTP where stated). Conditions: protein: recombinant, label: 32P at 5' end of FP-T, 1-nt gap, three strands, template FP-T, downstream FP-D, otherwise blunt.

Data set [7] addresses T3, DNA polymerase beta (Polβ). Nature of the data set: EMSA; 100 nM protein; EMSA: 50 mM Tris-HCl pH 7.5, 0.1 mg/ml BSA, 1 mM DTT, 4% glycerol, 5 nM DNA, 10 min at 30°C; footprinting: same buffer, 30 nM DNA, 37°C (2.5 mM MgCl2 and 100 µM).
Where [8] appears, read: label: 32P at 5' end of Sp1C, 1-nt gap, three strands, otherwise blunt.
The mark [9] stands for this setting: label: 32P, 3' overhang 2 nt (text says 3 nt), other end blunt.

T1 sequence (Q9NP87 whole entry): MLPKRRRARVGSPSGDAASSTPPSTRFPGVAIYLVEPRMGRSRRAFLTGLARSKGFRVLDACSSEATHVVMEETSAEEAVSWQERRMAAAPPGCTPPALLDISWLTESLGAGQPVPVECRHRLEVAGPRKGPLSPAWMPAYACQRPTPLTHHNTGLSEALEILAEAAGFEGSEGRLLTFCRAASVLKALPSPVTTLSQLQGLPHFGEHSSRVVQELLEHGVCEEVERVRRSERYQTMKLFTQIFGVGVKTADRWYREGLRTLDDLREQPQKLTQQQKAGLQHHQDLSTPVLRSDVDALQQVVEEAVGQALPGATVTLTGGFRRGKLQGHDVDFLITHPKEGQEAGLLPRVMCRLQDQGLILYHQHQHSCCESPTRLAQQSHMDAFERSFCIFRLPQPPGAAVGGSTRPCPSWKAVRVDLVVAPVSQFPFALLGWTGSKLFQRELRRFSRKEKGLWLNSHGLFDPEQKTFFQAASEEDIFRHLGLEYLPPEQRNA
T2 sequence (Q9NP87 138-494, stated change not applied): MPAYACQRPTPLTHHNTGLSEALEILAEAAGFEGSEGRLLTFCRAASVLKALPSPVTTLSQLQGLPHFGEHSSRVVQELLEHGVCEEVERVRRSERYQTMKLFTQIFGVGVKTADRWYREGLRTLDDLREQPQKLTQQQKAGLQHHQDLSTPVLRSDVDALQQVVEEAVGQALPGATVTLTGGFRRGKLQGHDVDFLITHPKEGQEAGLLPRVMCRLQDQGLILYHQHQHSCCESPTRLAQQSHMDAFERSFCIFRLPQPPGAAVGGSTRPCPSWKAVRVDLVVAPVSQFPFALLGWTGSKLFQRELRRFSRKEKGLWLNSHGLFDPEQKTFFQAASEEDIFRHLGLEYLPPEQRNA
Sequence of Polµ R387A (Q9NP87 whole entry R387A): as the sequence (Q9NP87 whole entry) above, with R387A counted along it
Sequence of Polµ H329G (Q9NP87 whole entry H329G): as the sequence (Q9NP87 whole entry) above, with H329G counted along it

B1: 1-nt gap Sp1C/T28/D12, 5'-OH (dsDNA)
DNA 1: AGAAGTGTATCTCGTACTCACTGTGATC
DNA 2: GATCACAGTGAGTAC
DNA 3: AGATACACTTCT
As to B1, the Kd in the data set with DNA polymerase mu (Polµ) [1] (setting [8]) turned out to be 500 nM.

B2: 3'-protruding end GT/NHEJ-D, 5'-P (dsDNA)
DNA 1: CCCTCCCTCCCGT
DNA 2: GGGAGGGAGGG
modifications: 5'-phosphate on NHEJ-D (S15)
For the molecule B2, the Kd was 165 nM in the data set with DNA polymerase mu (Polµ) [1] (setting [9]) and 2000 nM with Polµ-ΔBRCT [2].

B3: 3'-protruding end GT/NHEJ-D, 5'-OH (dsDNA)
DNA 1: CCCTCCCTCCCGT
DNA 2: GGGAGGGAGGG
In the case of B3, in the data set with DNA polymerase mu (Polµ) [1] (setting [9]), the equilibrium dissociation constant (Kd) amounted to 400 nM. The binding result with Polµ-ΔBRCT [3] is listed as “no binding”.

B4: footprint 1-nt gap FP-T/FP-P/FP-D, 5'-P (dsDNA)
DNA 1: GGCAGCTTGGATCTTGTCGAAAAACGTCAACATTCGCCTAGGCTTCGGCAATACTGAGGTCTTGTCGAAAAACGTCAACATTGCGTGGCC
DNA 2: GGCCACGCAATGTTGACGTTTTTCGACAAGACCTCAGTAT
DNA 3: GCCGAAGCCTAGGCGAATGTTGACGTTTTTCGACAAGATCCAAGCTGCC
modifications: 5'-phosphate on FP-D (S10)
Turning to B4, the binding result (in data set [4]; with Polµ-ΔBRCT [5]; with DNA polymerase mu (Polµ) [6]; with Polµ H329G; in the data set with Polµ R387A) was “binds” each time.

B5: 1-nt gap Sp1C/T28/D12, 5'-P (dsDNA)
DNA 1: AGAAGTGTATCTCGTACTCACTGTGATC
DNA 2: GATCACAGTGAGTAC
DNA 3: AGATACACTTCT
modifications: 5'-phosphate on D12 (S3)
With B5, the binding result in data set [7] was “binds”. For the same molecule, the Kd with DNA polymerase mu (Polµ) [1] (setting [8]) stood at 100 nM.

(Values after publication PMC3526283, “DNA-binding determinants promoting NHEJ by human Polµ”.)
